Test results from paper PMC8080463.

B1: aFGF-PQS21 (ssDNA)
DNA: GGTCCCAGGCCTGGGAGGG
B2: aFGF-PQS22 (ssDNA)
DNA: GGATGGGACAAGGGACAGG
B3: aFGF-PQS13 (ssDNA)
DNA: GGCATGGTATCTGGAGGCAGG
B4: aFGF-PQS5 (ssDNA)
DNA: GGCACTGGAGGAATGG
B5: aFGF-PQS4 (ssDNA)
DNA: GGTGGGTGGGTATGG
B6: aFGF-PQS16 (ssDNA)
DNA: GGGCAAAGGTCCTAGGGTGGGGG
B7: aFGF-PQS1 (ssDNA)
DNA: GGAGAACAGGAAGGCGGGGGTGAGGG
B8: aFGF-PQS3 (ssDNA)
DNA: GGAGACGGTAGGGCAAAGTGG
B9: aFGF-PQS8 (ssDNA)
DNA: GGTTGGGACTGGCGAGG
B10: aFGF-PQS2 (ssDNA)
DNA: GGAGAGGGTAGAGTGGGATGGG
B11: aFGF-PQS20 (ssDNA)
DNA: GGGAAGGAGGGAGGAAGGGAGGGAGGG
B12: aFGF-PQS10 (ssDNA)
DNA: GGCTAGAAGGTGGGGAATAAGG
B13: aFGF-PQS15 (ssDNA)
DNA: GGCCTGCAGGACTCTGGGAGG
B14: aFGF-PQS6 (ssDNA)
DNA: GGGAGAGGGACGGGCCGTGG
B15: aFGF-PQS11 (ssDNA)
DNA: GGGCTTGGCTCTGGGGATGG
B16: aFGF-PQS14 (ssDNA)
DNA: GGGCTGGAGGGGGCAGG
B17: aFGF-PQS18 (ssDNA)
DNA: GGGAGGTTAGGGTTGG
B18: aFGF-PQS7 (ssDNA)
DNA: GGTGGGGGGGG
B19: aFGF-PQS12 (ssDNA)
DNA: GGGTGGTGTGGGAGTGG
B20: aFGF-PQS23 (ssDNA)
DNA: GGTGGGAGGAAGG
B21: aFGF-PQS17 (ssDNA)
DNA: GGAAATGAGGCAGAGGGGGAGTAAGG
B22: aFGF-PQS9 (ssDNA)
DNA: GGCCAGGACAGGGTAAGG
B23: aFGF-PQS19 (ssDNA)
DNA: GGTGGAGGAAAGG
B24: HBEGF-PQS2 (structured_DNA)
DNA: GGAGGCGGCGAGG
B25: HBEGF-PQS1 (structured_DNA)
DNA: GGGAGGGTCCGGGTTGCTGG
B26: bFGF-PQS2 (ssDNA)
DNA: GGGGGCGGCGCGCAGGAGGGAGG
B27: bFGF-PQS1 (ssDNA)
DNA: GGGGTTGGGCGGGGGTGACTTTTGGGGGATAAGGGG
B28: bFGF-PQS13 (ssDNA)
DNA: GGCCGGGCGGGAAGG
B29: bFGF-PQS9 (ssDNA)
DNA: GGCTGCGGCGTAGGCCCGGG
B30: bFGF-PQS5 (ssDNA)
DNA: GGGAGGCTGGGGGGCCGGGGCCGGGG
B31: bFGF-PQS14 (ssDNA)
DNA: GGGCAAGGCGGGCAGCGTGG
B32: bFGF-PQS6 (ssDNA)
DNA: GGAGCGGGTCGGAGG
B33: bFGF-PQS10 (ssDNA)
DNA: GGGCCGGGGGTACTGGTTTACAGG
B34: bFGF-PQS8 (ssDNA)
DNA: GGTTTCTGGCCGCGCGGCCCTCGG
B35: bFGF-PQS3 (ssDNA)
DNA: GGGGGCGCGGGAGGCTGGTGGGTGTGGGGGG
B36: bFGF-PQS18 (ssDNA)
DNA: GGCCGCGGCAGGGCTTTGG
B37: bFGF-PQS12 (ssDNA)
DNA: GGGAGGAGGGTGCAGGCTGGAGG
B38: bFGF-PQS11 (ssDNA)
DNA: GGAAAGGAGGGGG
B39: bFGF-PQS4 (ssDNA)
DNA: GGCTCGAGGCTGGGGGACCGCGG
B40: bFGF-PQS15 (ssDNA)
DNA: GGGCACGGCCCCGGCCCCGG
B41: bFGF-PQS16 (ssDNA)
DNA: GGCGAGCCGGCGGCCCGGGACCTGGG
B42: bFGF-PQS7 (ssDNA)
DNA: GGGCCGGGGCCGGGGGACGG
B43: bFGF-PQS17 (ssDNA)
DNA: GGGGGCGGGGGAGAGGCGAGGGGCGGGGGG

Biological target: aFGF (UniProt P05230 16-155)
Test: SPR

Chain of aFGF (P05230 16-155): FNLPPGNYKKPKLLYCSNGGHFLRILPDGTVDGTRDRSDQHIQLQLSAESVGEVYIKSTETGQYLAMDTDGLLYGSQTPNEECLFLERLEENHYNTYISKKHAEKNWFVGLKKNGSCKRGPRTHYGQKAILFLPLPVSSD

Binding result, no binding:
B1
B2
B3
B4
B5
B6
B7
B8
B9
B10
B11
B12
B13
B14
B15
B16
B17
B18
B19
B20
B21
B22
B23

Biological target: HB-EGF (UniProt Q99075 63-148)
Test: SPR

Chain of HB-EGF (Q99075 63-148): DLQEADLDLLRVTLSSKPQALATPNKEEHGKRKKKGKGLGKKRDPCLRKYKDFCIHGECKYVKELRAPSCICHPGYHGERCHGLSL

Binding result, no binding:
B24
B25

Biological target: bFGF (UniProt P09038 143-288)
Test: SPR

Chain of bFGF (P09038 143-288): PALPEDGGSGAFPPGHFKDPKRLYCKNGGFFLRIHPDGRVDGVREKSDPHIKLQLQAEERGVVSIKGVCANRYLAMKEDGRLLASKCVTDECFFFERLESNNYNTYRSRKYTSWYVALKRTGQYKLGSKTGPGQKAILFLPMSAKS

Binding result, no binding:
B26
B27
B28
B29
B30
B31
B32
B33
B34
B35
B36
B37
B38
B39
B40
B41
B42
B43
